Laboratory results from patent US20080299140A1, “Immunogenic Composition and Peptide Sequences for Prevention and Treatment of an Hsv Condition” (priority 2002, published 2008).
No end group written: not given here.

Target: HLA-DR(α1*0101,α1*1301) (human)
Test: reference IC50 of the tracer peptide in the HLA class II competition assay

B1: B1 (21-36) (peptide)
peptide: TERVRLVTRHIYNREE
modifications: also: biotinylated when used as tracer
IC50: 0.276 µM
